Data on four molecules can be found in patent publication US9695228B2, “EGFR and c-Met fibronectin type III domain binding molecules” (Janssen Biotech, Inc., priority 2012, dated 2017).

Where a chain is given by its changes, count along the chain named. “And” between values parts separate entries of the source, which are not always exact repeats. Equal values may be shown once. “Also recorded” adds a separate entry of the source. Read-outs that look alike come from different tables or passages of the source.

The test system of series [1] is NCI-H292 cells expressing human HGF, xenograft. As to the kind of experiment: Tumor efficacy study with bispecific molecules of variable affinity, H292-HGF xenograft. The class given is in vivo, mice. The conditions noted are these: 25 mg/kg three times per week, FIG. 8. Here is the method:
One week after implantation, mice were stratified into groups with equivalent tumor volumes (mean tumor volume=77.9+/−1.7 mm^3). Mice were dosed three times per week with the bispecific molecules and tumor volumes were recorded twice weekly.

Series [2] has as its system H292-HGF human lung cancer xenograft. It is filed as in vivo.
Method: The H292-HGF cells were maintained in vitro in RPMI1640 medium supplemented with fetal bovine serum (10% v/v), and L-glutamine (2 mM) at 37° C. in an atmosphere of 5% CO2 in air. The cells were routinely subcultured twice weekly by trypsin-EDTA treatment. The cells growing in an exponential growth phase were harvested and counted for tumor inoculation.
Each mouse was inoculated subcutaneously at the right flank region with H292-HGF tumor cells (2×10^6) in 0.1 ml of PBS with cultrex (1:1) for tumor development. The treatments were started when the mean tumor size reached 139 mm^3. […] The date of tumor cell inoculation was denoted as day 0.
Before commencement of treatment, all animals were weighed and the tumor volumes were measured. Since the tumor volume can affect the effectiveness of any given treatment, mice were assigned into groups using randomized block design based upon their tumor volumes. […] The randomized block design was used to assign experimental animals to groups. First, the experimental animals were divided into homogeneous blocks according to their initial tumor volume. Secondly, within each block, randomization of experimental animals to treatments was conducted.
At the time of routine monitoring, the animals were checked for any effects of tumor growth and treatments on normal behavior, such as mobility, visual estimation of food and water consumption, body weight gain/loss (body weights were measured twice weekly), eye/hair matting and any other abnormal effect.
The endpoint was whether tumor growth can be delayed or tumor bearing mice can be cured. Tumor size was measured twice weekly in two dimensions using a caliper, and the volume was expressed in mm^3 using the formula: V=0.5 a×b^2 where a and b are the long and short diameters of the tumor, respectively. The tumor size was then used for calculations of both T-C and T/C values. T-C was calculated with T as the time (in days) required for the mean tumor size of the treatment group to reach 1000 mm^3, and C was the time (in days) for the mean tumor size of the control group to reach the same size. The T/C value (in percent) was an indication of antitumor efficacy; T and C were the mean tumor volume of the treated and control groups, respectively, on a given day. Complete tumor regression (CR) is defined as tumors that are reduced to below the limit of palpation (62.5 mm^3). Partial tumor regression (PR) is defined as tumors that are reduced from initial tumor volume. A minimum duration of CR or PR in 3 or more successive tumor measurements is required for a CP or PR to be considered durable.
Animals for which the body weight loss exceeded 20%, or for which the mean tumor size of the group exceeds 2000 mm^3 were euthanized. The study was terminated after two weeks of observation after the final dose.
Statistical analyses of difference in tumor volume among the groups were evaluated using a one-way ANOVA followed by individual comparisons using Games-Howell (equal variance not assumed). All data were analyzed using SPSS 18.0. p<0.05 was considered to be statistically significant.
Series [3] concerns the target T1, c-Met-Fc fusion protein (Homo sapiens, UniProt P08581).
T1 construct: recombinant EGFR and/or c-Met extracellular domain was further analyzed by surface Plasmon resonance
Briefly: c-Met-Fc affinity by surface plasmon resonance (ProteOn). The class given is binding. The conditions noted are these: serine mutants of A3 in the context of ECB15, SPR. In general terms: Surface plasmon resonance follows binding to a sensor surface in real time, without labels.

Series [4] relates to NCI-H1975 cell line. As to the kind of experiment: Inhibition of growth of NCI-H1975 cell line (EGFR L858R; T790M). It is filed as cell-based, human. Particulars: NCI-H1975, mutation T790M. Here is the method:
Inhibition of human tumor cell growth was assessed in standard attachment culture as described in Examples 3 or 6, or in low attachment conditions.

T1 sequence (P08581 25-932 limits assumed): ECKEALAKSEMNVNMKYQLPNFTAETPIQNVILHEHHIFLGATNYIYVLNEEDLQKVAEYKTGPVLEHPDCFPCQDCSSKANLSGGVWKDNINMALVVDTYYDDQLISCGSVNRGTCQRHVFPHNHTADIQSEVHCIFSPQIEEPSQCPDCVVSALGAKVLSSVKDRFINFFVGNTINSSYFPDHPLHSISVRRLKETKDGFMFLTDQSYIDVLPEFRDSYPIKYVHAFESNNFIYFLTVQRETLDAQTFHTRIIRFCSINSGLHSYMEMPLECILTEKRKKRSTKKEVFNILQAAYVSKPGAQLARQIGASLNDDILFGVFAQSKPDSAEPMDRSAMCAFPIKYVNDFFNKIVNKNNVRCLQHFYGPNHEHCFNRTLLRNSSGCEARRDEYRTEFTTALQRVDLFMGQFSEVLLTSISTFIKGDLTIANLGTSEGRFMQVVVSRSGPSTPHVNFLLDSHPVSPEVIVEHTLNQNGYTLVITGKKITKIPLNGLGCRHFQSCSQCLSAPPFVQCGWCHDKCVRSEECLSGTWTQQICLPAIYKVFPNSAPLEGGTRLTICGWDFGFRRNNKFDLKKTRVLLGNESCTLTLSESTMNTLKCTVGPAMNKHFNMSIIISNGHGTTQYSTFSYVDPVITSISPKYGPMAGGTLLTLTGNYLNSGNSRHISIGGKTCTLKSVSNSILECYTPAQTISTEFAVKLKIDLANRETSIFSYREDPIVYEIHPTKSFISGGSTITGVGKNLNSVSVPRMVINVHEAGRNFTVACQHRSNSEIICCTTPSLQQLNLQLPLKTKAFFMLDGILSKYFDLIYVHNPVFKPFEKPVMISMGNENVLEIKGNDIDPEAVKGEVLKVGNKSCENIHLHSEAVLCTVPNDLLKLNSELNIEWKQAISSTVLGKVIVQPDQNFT

B1: ECB18: bispecific linked to albumin binding domain, SEQ ID NO: 118; high EGFR / medium c-Met affinity (protein)
chain: MLPAPKNLVVSEVTEDSARLSWDDPWAFYESFLIQYQESEKVGEAIVLTVPGSERSYDLTGLKPGTEYTVSIYGVHNVYKDTNMRGLPLSAIFTTAPAPAPAPAPLPAPKNLVVSRVTEDSARLSWTAPDAAFDSFWIRYDEVVVGGEAIVLTVPGSERSYDLTGLKPGTEYYVNILGVKGGSISVPLSAIFTTAPAPAPAPAPLAEAKVLANRELDKYGVSDYYKNLINNAKTVEGVKALLDEILAALP
modifications: Bispecific EGFR/c-Met binding molecule
Take B1: the “tumor growth inhibition (in words)” value in series [1] is recorded as “delay in tumor growth”.

B2: ECB38: bispecific linked to albumin binding domain, SEQ ID NO: 120; high EGFR / high c-Met affinity; test article of Tables 14-16 (protein)
chain: B1 chain with D141F, V143F, V144L, V145G, G146S, Y173V, L177M, S183K, V186P
modifications: Bispecific EGFR/c-Met binding molecule
Take B2: in series [1], the “tumor growth inhibition (in words)” value is recorded as “showed the most efficacy”. Further, the treatment tolerated in series [2] (25 mg/kg, 3 times/week x 3 weeks) was 7 out of 10. Moreover, the Tumor volume in series [2] (day 7 (start of treatment), mean ± SEM, doses as in column head) worked out at 137 ± 7 mm^3; in series [2] (day 9, mean ± SEM) it was 142 ± 7 mm^3; in series [2] (day 13, mean ± SEM), 83 ± 6 mm^3; in series [2] (day 16, mean ± SEM), 44 ± 7 mm^3; in series [2] (day 20, mean ± SEM), 30 ± 6 mm^3; in series [2] (day 23, mean ± SEM), 23 ± 7 mm^3. Besides, the Tumor volume in series [2] (day 27, mean ± SEM) is 21 ± 5 mm^3; in series [2] (day 30, mean ± SEM) it was 23 ± 6 mm^3. Moreover, the “Tumor Size at day 23” value in series [2] (day 23 after tumor inoculation, doses given with treatment, listed as bispecific EGFR/c-Met molecule) was 23 mm^3 and 23 ± 7 mm^3. Besides, the “antitumor activity (in words)” value in series [2] (doses as in Table 14, listed as bispecific EGFR/c-Met molecule) is “complete tumor regression (CR) in all mice; also recorded: complete response”. For the same molecule, the “mice euthanized when BWL>20% during the treatment period” value in series [2] (mouse, in vivo) is given as 3 mice. Besides, the “tolerability / body weight loss (in words)” value in series [2] (mouse, in vivo) is “Slight toxicity”.

B3: ECB15: bispecific, SEQ ID NO: 57 (145 in Table 19): P54AR4-83v2-(AP)5-P114AR7P94-A3 (protein)
chain: MLPAPKNLVVSEVTEDSARLSWDDPWAFYESFLIQYQESEKVGEAIVLTVPGSERSYDLTGLKPGTEYTVSIYGVHNVYKDTNMRGLPLSAIFTTAPAPAPAPAPLPAPKNLVVSRVTEDSARLSWTAPDAAFDSFWIRYFEFLGSGEAIVLTVPGSERSYDLTGLKPGTEYVVNIMGVKGGKISPPLSAIFTT
modifications: bispecific EGFR/cMet binding molecule
In series [3], B3 displayed a ka of 351000 M⁻¹ s⁻¹ and a kd of 0.000133 s⁻¹. Also, in series [4], the “inhibition of growth (in words)” value is on record as “inhibited growth of NCI-H1975 cell line”.

B4: ECB39: bispecific linked to albumin binding domain, SEQ ID NO: 121; medium EGFR / high c-Met affinity (protein)
chain: MLPAPKNLVVSEVTEDSARLSWADPHGFYDSFLIQYQESEKVGEAIVLTVPGSERSYDLTGLKPGTEYTVSIYGVHNVYKDTNMRGLPLSAIFTTAPAPAPAPAPLPAPKNLVVSRVTEDSARLSWTAPDAAFDSFWIRYFEFLGSGEAIVLTVPGSERSYDLTGLKPGTEYVVNIMGVKGGKISPPLSAIFTTAPAPAPAPAPLAEAKVLANRELDKYGVSDYYKNLINNAKTVEGVKALLDEILAALP
modifications: Bispecific EGFR/c-Met binding molecule
For the molecule B4, the “tumor growth inhibition (in words)” value in series [1] is given as “showed the most efficacy”.
